Assay results published in patent US20250019439A1 (Adimab, published 2025).

B1: ADI-34145 IgG (antibody, V domains shown)
VH: EVQLLESGGGLVQPGGSLRLSCAASGFTFSSYAMSWVRQAPGKGLEWVSTISGSGGSTYYADSVKGRFTISRDNSKNTLYLQMNSLRAEDTAVYYCARLGGRRGSGSSYYYYYGMDVWGQGTTVTVSS
VL: not shown
notes: anti-ID IgG
B2: ADI-34134 IgG (antibody, V domains shown)
VH: QVQLVQSGAEVKKPGSSVKVSCKASGGTFSSYAISWVRQAPGQGLEWMGGIIPIFGTANYAQKFQGRVTITADESTSTAYMELSSLRSEDTAVYYCARGAPNYYGSGGYDDGWFDPWGQGTLVTVSS
VL: EIVLTQSPGTLSLSPGERATLSCRASQSVSSDYLAWYQQKPGQAPRLLIYGASSRATGIPDRFSGSGSGTDFTLTISRLEPEDFAVYYCQQFGRVPTFGGGTKVEIK

Experiments:
ADI-26906 IgG = target: T1, ADI-26906 IgG; assay: SPR Carterra avidity, yeast anti-ID
T1 construct: anti-CD3 IgG
Method in brief: (§1)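 At 25° C, anti-idiotype antibodies were analysed binding to anti-CD3 antibodies held on an anti-human Fc surface. Data were fitted to a 1:1 model.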

ADI-67447 = target: T2, ADI-67447; assay: SPR Carterra avidity, yeast anti-ID
T2 construct: anti-CD3 antibody made in CHO cells, captured by anti-human Fc
Method in brief: as §1

ADI-26916 IgG = target: T3, ADI-26916 IgG; assay: SPR Carterra avidity, yeast anti-ID
T3 construct: anti-CD3 IgG
Method in brief: as §1

ADI-67450 = target: T4, ADI-67450; assay: SPR Carterra avidity, yeast anti-ID
T4 construct: anti-CD3 antibody made in CHO cells, captured by anti-human Fc
Method in brief: as §1

ADI-26921 IgG = target: T5, ADI-26921 IgG; assay: SPR Carterra avidity, yeast anti-ID
T5 construct: anti-CD3 IgG
Method in brief: as §1

ADI-76362 = target: T6, ADI-76362; assay: SPR Carterra avidity, yeast anti-ID
T6 construct: anti-CD3 antibody made in CHO cells, captured by anti-human Fc
Method in brief: as §1

ADI-26915 = target: T7, ADI-26915; assay: SPR Carterra avidity, yeast anti-ID
T7 construct: anti-CD3 antibody made in CHO cells, captured by anti-human Fc
Method in brief: as §1

CTL-62223 = target: T8, CTL-62223; assay: SPR Carterra avidity, yeast anti-ID
T8 construct: also called mosunetuzumab
Method in brief: as §1

ADI-70327 = target: T9, ADI-70327; assay: SPR Carterra avidity, yeast anti-ID
T9 construct: anti-CD3 antibody made in CHO cells, captured by anti-human Fc
Method in brief: as §1

ADI-70330 = target: T10, ADI-70330; assay: SPR Carterra avidity, yeast anti-ID
T10 construct: anti-CD3 antibody made in CHO cells, captured by anti-human Fc
Method in brief: as §1

ADI-26913 anti-CD3 bsIgG = target: T11, ADI-26913 anti-CD3 bsIgG; assay: BLI; tip anti-CD3 bsIgG, solution ADI-34134 IgG
T11 construct: anti-HER2 IgG with one Fab arm replaced by the anti-CD3 scFv (printed 'Vx-VH', read as VL-VH); S354C and Y349C mutations; also called anti-CD3 bsIgG (ADI-26913 scFv); not shown: scFv linker; anti-HER2 Fab arm (heavy and light chain); hinge and Fc with S354C/Y349C
Protocol: (§2) ForteBio affinity measurements were performed generally as previously described (Estep et al., MAbs. 2013 5(2):270-8). Briefly, ForteBio affinity measurements were performed by loading antibody IgG or Fabs on-line onto AHC sensors. Sensors were equilibrated off-line in assay buffer for 30 minutes and then monitored on-line for 60 seconds for baseline establishment. For avid binding measurement, sensors with loaded antibodies were exposed to IgG or Fab solutions for 3 minutes, afterwards they were transferred to assay buffer for 3 minutes for off-rate measurement. Kinetics data were fit using a 1:1 binding model in the data analysis software provided by ForteBio to obtain equilibrium dissociation constant (KD=koff/kₒₙ) values. In each column, tip-immobilized antibodies are listed first and solution antibodies second.
(§3) Additional analysis was conducted using bispecific antibody formats incorporating anti-CD3 antibody variable domains. Bispecific antibodies were prepared using standard IgG formats (bsIgG) with replacement of Fab arms with anti-CD3 scFvs in Vx-VH orientation and with S354C and Y349C mutations for disulfide stabilization. Antibodies used for Fab arm replacement were anti-HER2 IgG antibodies, with one Fab arm from each replaced by a scFv corresponding to a different anti-CD3 antibody. […] In each column, tip-immobilized antibodies are listed first and solution antibodies second. Anti-CD3 antibodies associated with incorporated scFvs are listed by antibody number.

ADI-26927 anti-CD3 bsIgG = target: T12, ADI-26927 anti-CD3 bsIgG; assay: BLI; tip anti-CD3 bsIgG, solution ADI-34134 IgG
T12 construct: anti-HER2 IgG with one Fab arm replaced by the anti-CD3 scFv (printed 'Vx-VH', read as VL-VH); S354C and Y349C mutations; also called anti-CD3 bsIgG (ADI-26927 scFv); not shown: scFv linker; anti-HER2 Fab arm (heavy and light chain); hinge and Fc with S354C/Y349C
Protocol: as §2, §3

ADI-26920 anti-CD3 bsIgG = target: T13, ADI-26920 anti-CD3 bsIgG; assay: BLI; tip anti-CD3 bsIgG, solution ADI-34134 IgG
T13 construct: anti-HER2 IgG with one Fab arm replaced by the anti-CD3 scFv (printed 'Vx-VH', read as VL-VH); S354C and Y349C mutations; also called anti-CD3 bsIgG (ADI-26920 scFv); not shown: scFv linker; anti-HER2 Fab arm (heavy and light chain); hinge and Fc with S354C/Y349C
Protocol: as §2, §3

ADI-26916 anti-CD3 bsIgG = target: T14, ADI-26916 anti-CD3 bsIgG; assay: BLI; tip anti-CD3 bsIgG, solution ADI-34134 IgG
T14 construct: anti-HER2 IgG with one Fab arm replaced by the anti-CD3 scFv (printed 'Vx-VH', read as VL-VH); S354C and Y349C mutations; also called anti-CD3 bsIgG (ADI-26916 scFv); not shown: scFv linker; anti-HER2 Fab arm (heavy and light chain); hinge and Fc with S354C/Y349C; copies: 1 + 1
Protocol: as §2, §3

CTL-19613 anti-CD3 bsIgG = target: T15, CTL-19613 anti-CD3 bsIgG (In the assay the two domains were one scFv (VL-VH orientation, linker not given). It replaced one Fab arm of an anti-HER2 IgG; S354C and Y349C mutations are stated for disulfide stabilization.); assay: BLI; tip anti-CD3 bsIgG, solution ADI-34134 IgG
T15 construct: anti-HER2 IgG with one Fab arm replaced by the anti-CD3 scFv (printed 'Vx-VH', read as VL-VH); S354C and Y349C mutations; also called anti-CD3 bsIgG (CTL-19613 scFv); not shown: scFv linker between VL and VH; anti-HER2 heavy and light chains of the other arm; hinge and Fc (with S354C / Y349C)
Protocol: as §2, §3

T13 sequence (VH, as listed by the source limits assumed, chain 1 of 2): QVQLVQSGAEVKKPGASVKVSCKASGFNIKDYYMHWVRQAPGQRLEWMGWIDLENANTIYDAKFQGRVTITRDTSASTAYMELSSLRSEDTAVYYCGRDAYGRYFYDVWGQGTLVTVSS
T13 sequence (VL, as listed by the source limits assumed, chain 2 of 2): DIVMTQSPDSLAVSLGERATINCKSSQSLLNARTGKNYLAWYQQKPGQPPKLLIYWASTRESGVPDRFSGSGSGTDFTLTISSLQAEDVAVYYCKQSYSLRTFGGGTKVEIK
T9 sequence (VH, as listed by the source limits assumed, chain 1 of 2): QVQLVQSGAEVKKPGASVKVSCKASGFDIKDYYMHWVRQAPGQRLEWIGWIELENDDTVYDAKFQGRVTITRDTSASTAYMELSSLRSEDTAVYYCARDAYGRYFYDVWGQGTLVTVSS
T9 sequence (VL, as listed by the source limits assumed, chain 2 of 2): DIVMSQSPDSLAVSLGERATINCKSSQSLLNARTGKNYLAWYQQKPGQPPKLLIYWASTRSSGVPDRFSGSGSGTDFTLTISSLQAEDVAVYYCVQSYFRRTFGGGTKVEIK
T10 sequence (VH, as listed by the source limits assumed, chain 1 of 2): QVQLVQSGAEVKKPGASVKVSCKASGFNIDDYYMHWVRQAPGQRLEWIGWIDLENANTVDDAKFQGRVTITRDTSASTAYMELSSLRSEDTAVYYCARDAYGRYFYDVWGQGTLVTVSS
T11 sequence (VH, as listed by the source limits assumed, chain 1 of 2): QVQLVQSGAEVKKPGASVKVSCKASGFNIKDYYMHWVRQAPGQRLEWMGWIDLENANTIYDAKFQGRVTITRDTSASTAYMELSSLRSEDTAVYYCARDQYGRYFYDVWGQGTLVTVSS
T11 sequence (VL, as listed by the source limits assumed, chain 2 of 2): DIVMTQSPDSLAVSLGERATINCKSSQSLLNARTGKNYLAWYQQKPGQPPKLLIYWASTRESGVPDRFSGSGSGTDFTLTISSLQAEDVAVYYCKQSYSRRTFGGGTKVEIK
T1 sequence (VH, as listed by the source limits assumed, chain 1 of 2): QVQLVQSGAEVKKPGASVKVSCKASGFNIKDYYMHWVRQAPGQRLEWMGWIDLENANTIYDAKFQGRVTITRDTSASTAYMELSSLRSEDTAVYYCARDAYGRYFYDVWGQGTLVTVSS
T5 sequence (VH, as listed by the source limits assumed, chain 1 of 2): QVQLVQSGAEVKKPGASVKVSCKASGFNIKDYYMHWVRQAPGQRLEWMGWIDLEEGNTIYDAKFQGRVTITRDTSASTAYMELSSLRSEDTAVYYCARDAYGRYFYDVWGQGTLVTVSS
T2 sequence (VH, as listed by the source limits assumed, chain 1 of 2): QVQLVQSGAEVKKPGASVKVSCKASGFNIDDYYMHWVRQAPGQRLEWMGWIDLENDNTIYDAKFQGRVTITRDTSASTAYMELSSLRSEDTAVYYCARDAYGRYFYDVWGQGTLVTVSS
T6 sequence (VH, as listed by the source, chain 1 of 2): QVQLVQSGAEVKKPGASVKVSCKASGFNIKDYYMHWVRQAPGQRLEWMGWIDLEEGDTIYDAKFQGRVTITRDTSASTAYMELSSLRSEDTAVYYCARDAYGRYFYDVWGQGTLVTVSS
T12 sequence (VH, as listed by the source limits assumed, chain 1 of 2): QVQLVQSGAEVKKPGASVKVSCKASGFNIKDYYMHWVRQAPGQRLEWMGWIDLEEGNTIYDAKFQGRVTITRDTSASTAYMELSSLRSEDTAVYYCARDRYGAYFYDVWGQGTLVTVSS
T3 sequence (VH, as listed by the source, chain 1 of 2): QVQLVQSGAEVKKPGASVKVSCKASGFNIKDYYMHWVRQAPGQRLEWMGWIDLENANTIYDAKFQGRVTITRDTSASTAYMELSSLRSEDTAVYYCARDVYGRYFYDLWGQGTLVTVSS
T8 sequence (VH, as listed by the source, chain 1 of 2): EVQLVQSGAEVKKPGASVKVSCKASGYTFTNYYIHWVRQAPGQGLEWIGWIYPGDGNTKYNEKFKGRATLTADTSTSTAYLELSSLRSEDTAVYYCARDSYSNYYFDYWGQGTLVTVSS
T8 sequence (VL, as listed by the source, chain 2 of 2): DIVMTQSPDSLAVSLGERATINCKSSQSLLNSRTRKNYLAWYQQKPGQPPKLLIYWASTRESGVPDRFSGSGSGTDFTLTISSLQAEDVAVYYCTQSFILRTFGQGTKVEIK
T7 sequence (VH, as listed by the source, chain 1 of 2): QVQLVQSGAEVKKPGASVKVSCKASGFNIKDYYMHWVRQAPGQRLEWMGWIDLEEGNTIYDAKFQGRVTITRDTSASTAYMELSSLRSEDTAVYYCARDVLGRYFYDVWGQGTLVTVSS
T4 sequence (VH, as listed by the source limits assumed, chain 1 of 2): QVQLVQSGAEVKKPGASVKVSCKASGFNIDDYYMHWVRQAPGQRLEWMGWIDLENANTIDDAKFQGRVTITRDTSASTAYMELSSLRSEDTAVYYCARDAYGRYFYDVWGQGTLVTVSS

Row | Binder | Kd (ADI-26906 IgG) | Kd (ADI-67447) | Kd (ADI-26916 IgG) | Kd (ADI-67450) | Kd (ADI-26921 IgG) | Kd (ADI-76362) | Kd (ADI-26915) | Kd (CTL-62223) | Kd (ADI-70327) | Kd (ADI-70330) | Kd (ADI-26913 anti-CD3 bsIgG) | Kd (ADI-26927 anti-CD3 bsIgG) | Kd (ADI-26920 anti-CD3 bsIgG) | Kd (ADI-26916 anti-CD3 bsIgG) | binding result (CTL-19613 anti-CD3 bsIgG)
1 | B1 | 14 nM | 27 nM | 20 nM | – | – | – | – | – | – | – | – | – | – | – | –
2 | B2 | – | – | – | 12 nM | 3.6 nM | 6.3 nM | 19 nM | 18 nM | 14 nM | 13 nM | 0.98 nM | 1.02 nM | 0.47 nM | 1.94 nM | no binding
